Assay results as given in PMC3681735.

Molecular target: NtRPT6-GFP (Nicotiana tabacum) (UniProt L7UU40)

In the case of “XopJ-myc (from UniProt A0AB38E6N7 1-316) (natural protein)”, the proteasome activity (breakdown of Suc-LLVY-AMC) in total extracts of N. benthamiana leaves transiently expressing XopJ-myc, against the empty vector control is reported as 40%.
